Positions count from the first letter of the chain named.

Assay [1] deals with Muc1ムチン bearing the CA6 sialoglycotope (DS6 antigen), as expressed by CA6-positive human tumour cell lines (human) (UniProt P15941). Description: cell-based or functional assay.
Assay [2] shares this target. The assay can be described thus: flow cytometry on Caov-3 cells, apparent Kd (Fig. 20). (In general: Flow cytometry measures light scatter and fluorescence of single cells or particles in a stream.)
The target is the same in assay [3]. Description: flow cytometry competition; competitor 2 nM biotin-muDS6, streptavidin-DTAF (Fig. 19).
The target is the same in assay [4]. Description: flow cytometry, direct binding to KB cells, apparent Kd (Fig. 18).

Chain of UniProt P15941 (P15941 24-1255): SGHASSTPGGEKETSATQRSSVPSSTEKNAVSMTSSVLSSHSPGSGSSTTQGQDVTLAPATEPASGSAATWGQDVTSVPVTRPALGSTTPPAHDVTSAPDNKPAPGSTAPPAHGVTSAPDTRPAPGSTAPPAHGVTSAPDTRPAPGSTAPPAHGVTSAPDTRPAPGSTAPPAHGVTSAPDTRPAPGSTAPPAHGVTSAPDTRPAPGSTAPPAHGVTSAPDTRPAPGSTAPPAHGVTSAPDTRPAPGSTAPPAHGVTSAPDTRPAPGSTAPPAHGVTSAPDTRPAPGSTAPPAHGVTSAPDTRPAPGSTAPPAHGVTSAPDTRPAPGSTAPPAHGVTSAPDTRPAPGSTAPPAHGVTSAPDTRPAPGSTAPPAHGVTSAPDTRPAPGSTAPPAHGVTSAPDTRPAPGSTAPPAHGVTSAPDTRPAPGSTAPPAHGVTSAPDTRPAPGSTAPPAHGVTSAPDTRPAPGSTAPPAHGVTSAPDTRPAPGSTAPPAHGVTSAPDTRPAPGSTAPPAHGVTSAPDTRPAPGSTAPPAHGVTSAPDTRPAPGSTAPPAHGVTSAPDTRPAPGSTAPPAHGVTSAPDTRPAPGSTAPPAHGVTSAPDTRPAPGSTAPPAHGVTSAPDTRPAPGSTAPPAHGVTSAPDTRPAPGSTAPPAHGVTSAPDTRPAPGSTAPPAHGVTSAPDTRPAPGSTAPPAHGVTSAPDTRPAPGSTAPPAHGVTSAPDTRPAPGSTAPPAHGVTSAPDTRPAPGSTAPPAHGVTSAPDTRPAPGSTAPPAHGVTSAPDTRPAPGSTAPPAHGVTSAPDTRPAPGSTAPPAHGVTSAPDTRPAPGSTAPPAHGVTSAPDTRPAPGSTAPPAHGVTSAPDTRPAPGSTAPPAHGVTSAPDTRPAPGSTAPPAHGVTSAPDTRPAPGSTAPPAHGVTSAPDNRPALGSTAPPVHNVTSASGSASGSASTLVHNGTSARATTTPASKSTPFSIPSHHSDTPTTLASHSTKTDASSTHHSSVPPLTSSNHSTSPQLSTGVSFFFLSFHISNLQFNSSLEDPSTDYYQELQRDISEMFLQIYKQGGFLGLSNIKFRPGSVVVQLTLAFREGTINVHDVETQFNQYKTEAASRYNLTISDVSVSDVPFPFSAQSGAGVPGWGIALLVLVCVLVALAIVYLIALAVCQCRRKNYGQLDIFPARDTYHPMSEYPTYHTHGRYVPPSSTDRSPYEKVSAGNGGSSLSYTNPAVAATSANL

B1: muDS6−DM1細胞傷害性コンジュゲート (muDS6-SPP-DM1) (antibody, from another filing, V domains shown)
VH: QAYLQQSGAELVRSGASVKMSCKASGYTFTSYNMHWVKQTPGQGLEWIGYIYPGNGATNYNQKFKGKATLTADPSSSTAYMQISSLTSEDSAVYFCARGDSVPFAYWGQGTLVTVSA
VL: QIVLTQSPAIMSASPGEKVTITCSAHSSVSFMHWFQQKPGTSPKLWIYSTSSLASGVPARFGGSGSGTSYSLTISRMEAEDAATYYCQQRSSFPLTFGAGTKLELKR
As to B1, in assay [1], the IC50, colony formation assay on Caov-3 cells was determined as 800 pM. In addition, the Kd in assay [2] was found to be 3900 pM.

B2: ヒト化DS6 1.21型 (humanized DS6 version 1.21) (antibody, from another filing, V domains shown)
VH: B1 VH with Y3Q, Q5V, L11V, R13K, S14P, K65Q
VL: B1 VL with Q1E, I10T, K18R, R76S
For orientation: EC50 means the concentration giving half of the maximal effect. High values mean weaker potency, low ones greater potency. The molecule B2 came in with an EC50 in assay [3] of 1900 pM. For the same molecule, in assay [4], the Kd came out at 850 pM.

B3: huDS6v1.01−SPDB−DM4コンジュゲート (antibody, from another filing, human IgG1, V domains shown)
VH: B1 VH with Y3Q, Q5V, L11V, R13K, S14P, K65Q, P74T
VL: B1 VL with Q1E, I10T, K18R, R76S
In assay [1], B3 returned an IC50, in vitro cytotoxicity (MTT) on WISH cells of 440 pM.

B4: DS6のキメラ型 (chimeric DS6, human constant regions and murine variable regions) (antibody, from another filing, V domains shown)
VH: B1 VH
VL: B1 VL
With B4, in assay [3], the half-maximal effective concentration (EC50) came out at 1700 pM. In assay [4], the Kd was determined as 690 pM.

B5: ヒト化DS6 1.01型 (humanized DS6 version 1.01) (antibody, from another filing, V domains shown)
VH: B1 VH with Y3Q, Q5V, L11V, R13K, S14P, K65Q, P74T
VL: B1 VL with Q1E, I10T, K18R, R76S
With B5, in assay [3], the EC50 came out at 3000 pM. In addition, in assay [4], the Kd came out at 820 pM.

Source of the values: patent JP2012161321A.
